Target: human Nav1.7, Q15858
Conditions: chains peptide; modification not given

B1: recombinant Protoxin-II (peptide)
chain: GPYCQKWMWTCDSERKCCEGMVCRLWCKKKLW
In the case of B1, the IC50 is reported as 62 nM.

From patent US20210363204A1
